B1: 25G7-(scdsFv)-PE38KDEL (scFv)
scFv: EVQLVESGGGLVQPGGSLRLSCAASGFTFSDYGMHWVRQAPGKCLEWVAFISSGSSIIYYADIVKGRSTISRDNAKNTLYLQMNSLRAEDTAVYYCTRGNKRGFFDYWGQGTLVTVSSGGGGSGGGGSGGGGSEIVLTQSPATLSLSPGERATLSCRASSSVPYMYWYQQKPGQAPRLLIYLTSNLASGIPARFSGSGSGTDFTLTISSLEPEDFAVYYCQQWRAYPPMLTFGCGTKVEIKASGGPEEGGSLAALTAHQACHLPLETFTRHRQPRGWEQLEQCGYPVQRLVALYLAARLSWNQVDQVIRNALASPGSGGDLGEAIREQPEQARLALTLAAAESERFVRQGTGNDEAGAANGPADSGDALLERNYPTGAEFLGDGGDVSFSTRGTQNWTVERLLQAHRQLEERGYVFVGYHGTFLEAAQSIVFGGVRARSQDLDAIWRGFYIAGDPALAYGYAQDQEPDARGRIRNGALLRVYVPRSSLPGFYRTSLTLAAPEAAGEVERLIGHPLPLRLDAITGPEEEGGRLETILGWPLAERTVVIPSAIPTDPRNVGGDLDPSSIPDKEQAISALPDYASQPGKPPKDEL

Experiments:
[1] = biological target: human IL-4R overexpressed on glioblastoma cells (LN229-IL4R, U87-IL4R, U251-IL4R) (human) (UniProt P24394); test: flow cytometry, U87-IL4R cells, 0.246914 ug/mL
[2] = biological target: human IL-4R overexpressed on glioblastoma cells (LN229-IL4R, U87-IL4R, U251-IL4R) (human) (UniProt P24394); test: flow cytometry, U87-IL4R cells, 0.027435 ug/mL
[3] = biological target: human IL-4R overexpressed on glioblastoma cells (LN229-IL4R, U87-IL4R, U251-IL4R) (human) (UniProt P24394); test: flow cytometry, U251-IL4R cells, 6.666667 ug/mL
[4] = biological target: human IL-4R overexpressed on glioblastoma cells (LN229-IL4R, U87-IL4R, U251-IL4R) (human) (UniProt P24394); test: flow cytometry, U87-IL4R cells, 6.666667 ug/mL
[5] = biological target: human IL-4R overexpressed on glioblastoma cells (LN229-IL4R, U87-IL4R, U251-IL4R) (human) (UniProt P24394); test: cell-based or functional assay
[6] = biological target: human IL-4R overexpressed on glioblastoma cells (LN229-IL4R, U87-IL4R, U251-IL4R) (human) (UniProt P24394); test: flow cytometry, U87-IL4R cells, 2.222222 ug/mL
[7] = biological target: human IL-4R overexpressed on glioblastoma cells (LN229-IL4R, U87-IL4R, U251-IL4R) (human) (UniProt P24394); test: flow cytometry, LN229-IL4R cells, 2.222222 ug/mL
[8] = biological target: rhIL-4R-Fc (ILR-H5253, Acro) (human) (UniProt P24394); test: SPR Biacore 8K, rhIL-4R-Fc captured by anti-human IgG on CM5, immunotoxin as analyte
[9] = biological target: human IL-4R overexpressed on glioblastoma cells (LN229-IL4R, U87-IL4R, U251-IL4R) (human) (UniProt P24394); test: flow cytometry, U87-IL4R cells, 0.082305 ug/mL
[10] = biological target: human IL-4R overexpressed on glioblastoma cells (LN229-IL4R, U87-IL4R, U251-IL4R) (human) (UniProt P24394); test: flow cytometry, U251-IL4R cells, 20 ug/mL
[11] = biological target: human IL-4R overexpressed on glioblastoma cells (LN229-IL4R, U87-IL4R, U251-IL4R) (human) (UniProt P24394); test: flow cytometry, LN229-IL4R cells, 0.246914 ug/mL
[12] = biological target: human IL-4R overexpressed on glioblastoma cells (LN229-IL4R, U87-IL4R, U251-IL4R) (human) (UniProt P24394); test: flow cytometry, U251-IL4R cells, 0.082305 ug/mL
[13] = biological target: human IL-4R overexpressed on glioblastoma cells (LN229-IL4R, U87-IL4R, U251-IL4R) (human) (UniProt P24394); test: flow cytometry, U87-IL4R cells, 0.740741 ug/mL
[14] = biological target: human IL-4R overexpressed on glioblastoma cells (LN229-IL4R, U87-IL4R, U251-IL4R) (human) (UniProt P24394); test: flow cytometry, LN229-IL4R cells, 0.082305 ug/mL
[15] = biological target: human IL-4R overexpressed on glioblastoma cells (LN229-IL4R, U87-IL4R, U251-IL4R) (human) (UniProt P24394); test: flow cytometry, U251-IL4R cells, 2.222222 ug/mL
[16] = biological target: human IL-4R overexpressed on glioblastoma cells (LN229-IL4R, U87-IL4R, U251-IL4R) (human) (UniProt P24394); test: flow cytometry, U87-IL4R cells, 20 ug/mL
[17] = biological target: human IL-4R overexpressed on glioblastoma cells (LN229-IL4R, U87-IL4R, U251-IL4R) (human) (UniProt P24394); test: flow cytometry, LN229-IL4R cells, 0.740741 ug/mL
[18] = biological target: human IL-4R overexpressed on glioblastoma cells (LN229-IL4R, U87-IL4R, U251-IL4R) (human) (UniProt P24394); test: flow cytometry, LN229-IL4R cells, 0.027435 ug/mL
[19] = biological target: human IL-4R overexpressed on glioblastoma cells (LN229-IL4R, U87-IL4R, U251-IL4R) (human) (UniProt P24394); test: flow cytometry, LN229-IL4R cells, 6.666667 ug/mL
[20] = biological target: human IL-4R overexpressed on glioblastoma cells (LN229-IL4R, U87-IL4R, U251-IL4R) (human) (UniProt P24394); test: flow cytometry, LN229-IL4R cells, 20 ug/mL
[21] = biological target: human IL-4R overexpressed on glioblastoma cells (LN229-IL4R, U87-IL4R, U251-IL4R) (human) (UniProt P24394); test: flow cytometry, U251-IL4R cells, 0.027435 ug/mL
[22] = biological target: human IL-4R overexpressed on glioblastoma cells (LN229-IL4R, U87-IL4R, U251-IL4R) (human) (UniProt P24394); test: flow cytometry, U251-IL4R cells, 0.246914 ug/mL
[23] = biological target: human IL-4R overexpressed on glioblastoma cells (LN229-IL4R, U87-IL4R, U251-IL4R) (human) (UniProt P24394); test: flow cytometry, U251-IL4R cells, 0.740741 ug/mL
[24] = biological target: T1, rhIL-4R-Fc (ILR-H5253, Acro) (human, UniProt P24394 26-232)
T1 sequence: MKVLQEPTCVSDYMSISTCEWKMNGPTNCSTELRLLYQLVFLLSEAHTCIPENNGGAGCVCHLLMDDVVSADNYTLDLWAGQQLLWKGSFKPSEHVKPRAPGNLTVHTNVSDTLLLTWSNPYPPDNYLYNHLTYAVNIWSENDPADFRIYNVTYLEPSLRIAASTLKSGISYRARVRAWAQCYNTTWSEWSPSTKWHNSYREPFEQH

Molecule | Mean MFI [1] | Mean MFI [2] | Mean MFI [3] | Mean MFI [4] | Mean MFI [6] | Mean MFI [7] | Mean MFI [9] | Mean MFI [10] | Mean MFI [11] | Mean MFI [12] | Mean MFI [13] | Mean MFI [14] | Mean MFI [15] | Mean MFI [16] | Mean MFI [17] | Mean MFI [18] | Mean MFI [19] | Mean MFI [20] | Mean MFI [21] | Mean MFI [22] | other results
MDNA55 (ligand) | 17100 MFI | 9120 MFI | 17500 MFI | 29700 MFI | 25300 MFI | 19400 MFI | 12000 MFI | 22600 MFI | 12400 MFI | 5860 MFI | 21600 MFI | 8310 MFI | 13700 MFI | 32700 MFI | 16200 MFI | 4470 MFI | 21100 MFI | 24300 MFI | 3180 MFI | 8130 MFI | in vitro killing (CTG cell viability), LN229-IL4R cells [5]: 80%; Kd [8]: 0.439 nM; koff [8]: 0.0029 s⁻¹; kon [8]: 6.62e+06 M⁻¹ s⁻¹; Mean MFI [23]: 10700 MFI
hIgG1 isotype control (antibody) | 322 MFI | 588 MFI | 288 MFI | 306 MFI | 334 MFI | 361 MFI | 394 MFI | 275 MFI | 300 MFI | 274 MFI | 339 MFI | 318 MFI | 282 MFI | 318 MFI | 286 MFI | 352 MFI | 244 MFI | 231 MFI | 263 MFI | 287 MFI | Mean MFI [23]: 284 MFI
B1 | – | – | – | – | – | – | – | – | – | – | – | – | – | – | – | – | – | – | – | – | Kd [24]: 0.101 nM; koff [24]: 0.000279 s⁻¹; kon [24]: 2.77e+06 M⁻¹ s⁻¹

From patent US20240075158A1 (JIANGSU HENGRUI PHARMACEUTICAL, published 2024)
